According to patent publication US20220168331A1, “PRR-Activating and MicroRNA-Inhibiting Molecules and Methods of Using Same” (Duke University, priority 2019, published 2022):
“Also recorded” adds a separate entry of the source.

Legend:
[1] = system: B16-F10 mouse melanoma cells; assay: IFN-β production (ELISA) by B16-F10 cells; format: cell-based; conditions: transfected once or twice, 0.6 μg/ml, DharmaFECT, ELISA
Experimental: (§1) B16-F0 and B16-F10 mouse melanoma cells lines are originated from the same parental cell line but they have different metastatic ability. B16-F0 cell line has no or marginal metastatic ability but B16-F10 cell line has potent metastatic ability. B16-F0 and B16-F10 cells (1×10^4) were treated with RIG-I agonist ICR4-liposome complex (0.6 μg/ml). After overnight incubation, cytotoxicity and IFN-β production by the cells were measured using MTT assay and ELISA, respectively. […] Tumor suppressor proteins, such as programmed cell death 4 (PDCD4) and phosphatase and tensin homolog (PTEN), and pre-miR-21 levels in B16-F0 and B16-F10 cells were measured using real-time qPCR. […] It was hypothisized that miR-21 would interfere with antitumor effects of RIG-I agonists in B16-F10 melanoma cells.
(§2) To improve therapeutic effects of RIG-I agonists in B16-F10 cells, we designed and generated a novel RIG-I-activating RNA molecule (named RigantmiR-21) that is composed of a RIG-I-activating RNA structure (ICR4: 5′ppp-containg double stem-loop RNA) and a complementary sequence to mature miR-21. B16-F10 melanoma cells were transfected once or twice with RigantmiR-21, mutant RigantmiR-21, anti-miR-21, or ICR4 (0.6 μg/ml) using liposomal transfection agent DharmaFECT (DF). The expression of miR-21 target genes was determined using qPCR. IFN-β production was determined using ELISA. […] Anti-miR-21, ICR4, and RigantmiR-21 RNAs were complexed with in vivo transfection agent jet-PEI. Jet-PEI alone or RNA-jet-PEI complexes (25 μg) were injected thrice intratumorally into B16-F10 melanoma-bearing immunocompetent mice. (n=6).
Additionally, conjugation of anti-miR-21 improved the ability of other types of RIG-I agonists, such as ICR2 and ICR2AS^4 (sequences shown in FIG. 6A) to induce IFN-β production by cancer cells.

[2] = system: mouse pancreatic, adenocarcinoma, and sarcoma cells; assay: Antitumor activities in mouse pancreatic cancer and sarcoma cells (overall statements); format: cell-based
Experimental: (§3) The antitumor effects of RigantmiR-21 are not limited to melanoma cells. KPC-4839 (mouse pancreatic ductal adenocarcinoma), PANC-02 (mouse pancreatic adenocarcinoma) and mouse sarcoma cell line cells were transfected with indicated ICR4, RigantmiR-21, mutant RigantmiR-21, or anti-miR-21 (0.6 μg/ml) using DharmaFECT (DF). After overnight incubation, IFN-β production by these cells was determined using ELSIA. (n=3). As shown in FIGS. 4A-4C, RigantmiR-21 treatments induced cell death and IFN-β production by mouse pancreatic, adenocarcinoma, and sarcoma cells that are also resistant to RIG-I agonist ICR4.

[3] = system: 402230 sarcoma; assay: Survival of 402230 sarcoma-bearing immunocompetent mice; format: in vivo, mouse; conditions: RigantmiR-21 1 mg/kg with jetPEI intratumorally once daily for three days, anti-PD-1 intraperitoneally twice at 7-day interval
Experimental: Murine sarcoma 402230 cell line was treated single with RigantmiR-21 ([…]) in complex with liposome. IFN-β production 24 h after treatment (FIG. 12A) and cytotoxicity 72 h after treatment (FIG. 12B) were measured using ELISA and MTT assay, respectively. N=3. 402230 sarcoma-bearing immunocompetent mice were injected intratumorally once daily for three days with RigantmiR-21 (1 mg/kg) in complex with in vivo transfection agent jetPEI, N=5. (FIG. 12C). Sarcoma-bearing mice were also injected intraperitoneally twice at 7-day interval with anti-PD-1. jetPEI alone and jetPEI with isotype control antibody were used as control.

[4] = system: PANC-02 (mouse pancreatic adenocarcinoma); assay: IFN-β production and cell death in PANC-02 cells; format: cell-based; conditions: 0.6 μg/ml, DharmaFECT
Experimental: as §3

[5] = system: 4T1 mouse breast cancer cells, B16-F10 mouse melanoma cells, 403688 mouse sarcoma cells, and WM266.4 human melanoma cells; assay: IFN-β production (ELISA) by different cancer cells after first and second transfection with RIG-I agonists; format: cell-based; conditions: DharmaFECT, one day after first and second transfection; FIG. 11
Experimental: 4T1 mouse breast cancer cells, B16-F10 mouse melanoma cells, 403688 mouse sarcoma cells, and WM266.4 human melanoma cells were transfected with indicated RIG-I agonists using liposomal transfection agent DharmaFECT (DF). After overnight incubation, the cells was replenished with fresh culture media, followed by another transfection with the same RIG-I agonists. One day after first and second transfection IFN-β production by these cells were determined using ELSIA.

[6] = system: KPC-4839 (mouse pancreatic ductal adenocarcinoma); assay: IFN-β production and cell death in KPC-4839 cells; format: cell-based; conditions: 0.6 μg/ml, DharmaFECT
Experimental: as §3

[7] = system: B16-F0 mouse melanoma cells; assay: Cytotoxicity (MTT assay) in B16-F0 cells; format: cell-based; conditions: two transfections at various concentrations, DharmaFECT, MTT three days after first transfection
Experimental: as §1
B16-F0 mouse melanoma cells were transfected with ICR4, RigantmiR-21, mutant RigantmiR-21, or anti-miR-21 at various concentrations using DharmaFECT (DF). After overnight incubation, the cells were replenished with fresh culture media, followed by another transfection with the same dose of RNAs. Three days after the first transfection, cytotoxicity levels were measured using MTT assay.

[8] = system: B16-F10 melanoma; assay: Survival of B16-F10 melanoma-bearing immunocompetent mice after intratumoral RNA-jet-PEI injections; format: in vivo, mouse; conditions: RNA-jet-PEI complexes 25 μg injected thrice intratumorally
Experimental: as §2

[9] = system: mouse sarcoma cell line cells; assay: IFN-β production and cell death in mouse sarcoma cell line; format: cell-based; conditions: 0.6 μg/ml, DharmaFECT
Experimental: as §3

[10] = system: B16-F0 mouse melanoma cells; assay: IFN-β production (ELISA) by B16-F0 cells; format: cell-based; conditions: 12.5 nM, DharmaFECT, one day after first and second transfection, ELISA
Experimental: as §1
B16-F0 mouse melanoma cells were transfected with ICR4, RigantmiR-21, mutant RigantmiR-21, or anti-miR-21 at 12.5 nM using DharmaFECT (DF). After overnight incubation, the cells were replenished with fresh culture media, followed by another transfection with the same dose of RNAs. One day after the first and second transfection, IFN-β production by these cells were determined using ELSIA.
B16-F0 mouse melanoma cells or bone marrow-derived dendritic cells (BM-DCs) were transfected once (x1) or twice (x2) with a complex of polyI:C (pIC) (0.6 μg/ml) and transfection agent jet-PEI. IFN-β production by the cells one day after each transfection was determined using ELISA.

[11] = system: miR-21; assay: Expression of premiR-21 and miR-21 target genes (qPCR) in B16-F10 melanoma cells; format: cell-based, mouse; conditions: 0.6 μg/ml, DharmaFECT
Experimental: as §2

[12] = system: Mouse macrophage cells; assay: IFN-β production by macrophages re-treated with PRR agonists with or without 1-MT and CH223191; format: cell-based; conditions: re-treatment with the same agonist in presence of mixture of 1-MT and CH223191; FIG. 10
Experimental: Mouse macrophage cells were treated with MDA5 agonists (pIC-HMW and pIC-LMW), RIG-I agonists (ICR4 and RigantmiR-21), and STING agonists (2′3′-cGAMP and c-di-GMP). After overnight incubation, the cells were replenished with fresh culture media and treated with the same agonists in the presence or absence of a mixture of 1-MT and CH223191. (n=3).

B1: RigantmiR-21: nuclease-resistant RNA composed of RIG-I-activating structure ICR4 and a complementary sequence to mature miR-21; SEQ ID NO: 2 (nucleic acid)
chain: GGAUGCGGUACCUGACAGCAUCUUGAAAUAAGGACUGAUGCUCAACAUCAGUCUGAUAAGCUA
modifications: nuclease-resistant RNA, modifications not given here
[1]
  IFN-β production compared to ICR4 and mutant RigantmiR-21: significantly increased
[2]; FIGS. 4A-4C
  antitumor activities relative to MDA5 agonist polyI:C: comparable
[2]; figure legend FIGS. 4A-4C
  IFN-β production by mouse pancreatic cancer cells and sarcoma: improves
[3]
  survival, RigantmiR-21 and anti-PD-1 antibody compared to RigantmiR-21 alone: significantly improved survival
[3]; listed as RignatmiR-21
  survival, RigantmiR-21 and anti-PD-1 antibody compared to RigantmiR-21 alone: synergizes
[4]
  cell death: induced
[4]; overnight, ELISA
  IFN-β production: induced
[5]
  IFN-β production by different cancer cells: differentially induce
[6]
  cell death: induced
[6]; overnight, ELISA
  IFN-β production: induced
[7]
  cytotoxic effects after repeated treatments: gradually augmented; also recorded: significantly increased
[8]
  survival compared to repeated injections with ICR4 or anti-miR-21: significantly improved the survival
[9]
  cell death: induced
[9]; overnight, ELISA
  IFN-β production: induced
[10]
  IFN-β production after first and second transfection: incremental; also recorded: significantly increased
[10]; listed as RignatmiR-21
  IFN-β production after first and second transfection: gradually increase
[11]
  expression of premiR-21: inhibited
  miR-21 target gene (PTEN) expression: upregulated
[12]
  IFN-β production with IDO inhibitor and AHR inhibitor co-treatment compared to PRR agonist alone: enhanced
